Data from US20260250421A1.

Biological target: His-tagged dog TROP2 protein (dog)
Experiment: SPR Biacore 8K, Ab on Protein A chip

Kd [nM] | koff [s⁻¹] | kon [M⁻¹ s⁻¹] | Binder
27.2 | 0.000812 | 29900 | DS-1062 analog-LALA (antibody, V domains shown) VH: QVQLVQSGAEVKKPGASVKVSCKASGYTFTTAGMQWVRQAPGQGLEWMGWINTHSGVPKYAEDFKGRVTISADTSTSTAYLQLSSLKSEDTAVYYCARSGFGSSYWYFDVWGQGTLVTVSS VL: DIQMTQSPSSLSASVGDRVTITCKASQDVSTAVAWYQQKPGKAPKLLIYSASYRYTGVPSRFSGSGSGTDFTLTISSLQPEDFAVYYCQQHYITPLTFGQGTKLEIKR
42 | 0.00858 | 204000 | Sacituzumab analog (antibody, V domains shown) VH: QVQLQQSGSELKKPGASVKVSCKASGYTFTNYGMNWVKQAPGQGLKWMGWINTYTGEPTYTDDFKGRFAFSLDTSVSTAYLQISSLKADDTAVYFCARGGFGSSYWYFDVWGQGSLVTVSS VL: DIQLTQSPSSLSASVGDRVSITCKASQDVSIAVAWYQQKPGKAPKLLIYSASYRYTGVPDRFSGSGSGTDFTLTISSLQPEDFAVYYCQQHYITPLTFGAGTKVEIKR
